Experimental data: PMC10786891, “Massively parallel profiling of RNA-targeting CRISPR-Cas13d”
Numbering of substitutions follows the chain as printed. Numbers in names are those of the source.

T1: EsCas13d, nuclease-dead (Eubacterium siraeum, UniProt B0MS50, R295A;H300A;R849A;H854A)
T1 sequence: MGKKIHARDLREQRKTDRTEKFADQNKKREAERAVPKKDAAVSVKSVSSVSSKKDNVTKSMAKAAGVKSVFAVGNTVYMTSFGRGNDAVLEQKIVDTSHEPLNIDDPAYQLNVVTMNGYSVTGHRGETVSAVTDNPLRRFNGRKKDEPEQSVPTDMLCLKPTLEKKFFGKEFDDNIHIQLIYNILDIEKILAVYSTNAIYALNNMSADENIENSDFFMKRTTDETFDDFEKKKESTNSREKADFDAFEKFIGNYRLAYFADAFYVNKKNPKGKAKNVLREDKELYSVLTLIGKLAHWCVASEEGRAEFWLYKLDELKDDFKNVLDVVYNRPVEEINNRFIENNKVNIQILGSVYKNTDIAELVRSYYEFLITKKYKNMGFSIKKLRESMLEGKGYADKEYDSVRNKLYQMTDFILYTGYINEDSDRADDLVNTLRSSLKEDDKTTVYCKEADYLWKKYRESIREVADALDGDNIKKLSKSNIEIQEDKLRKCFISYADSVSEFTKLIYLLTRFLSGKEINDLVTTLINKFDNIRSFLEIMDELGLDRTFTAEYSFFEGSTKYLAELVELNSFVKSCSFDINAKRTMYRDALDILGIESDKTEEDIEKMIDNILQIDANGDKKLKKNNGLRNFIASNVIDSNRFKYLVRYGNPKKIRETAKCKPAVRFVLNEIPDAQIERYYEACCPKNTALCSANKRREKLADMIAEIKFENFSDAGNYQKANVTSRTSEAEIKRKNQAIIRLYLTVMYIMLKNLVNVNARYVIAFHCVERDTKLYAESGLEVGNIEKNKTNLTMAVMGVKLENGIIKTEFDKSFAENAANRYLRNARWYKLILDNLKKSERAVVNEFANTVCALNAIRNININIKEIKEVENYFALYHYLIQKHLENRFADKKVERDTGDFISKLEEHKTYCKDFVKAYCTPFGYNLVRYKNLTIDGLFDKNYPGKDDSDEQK

B1: target 1 insA 3' of 4,insU 3' of 2 (mixed)
RNA 1: CACCCGUGCAAAAAUGCAGGGGUCUAAAACUGAGCGGAUAACCUCUCUAUGG
RNA 2: GGGAAUGGAUCCACAUCUACGAAUUCGUACCAUAGAGAGGUUAUCCGCAUCUACCGAGAUCGGAAGAGCACACGU
B2: target 1 insU 3' of 22,insG 3' of 18 (mixed)
RNA 1: B1 RNA 1
RNA 2: GGGAAUGGAUCCACAUCUACGAAUUCGUACUCAUAGGAGAGGUUAUCCGCUCACCGAGAUCGGAAGAGCACACGU
B3: target 1 insA 3' of 7,insU 3' of 6 (mixed)
RNA 1: B1 RNA 1
RNA 2: B1 RNA 2 with C46A, G47C, C48U, A49G, U50C, C51U, U52C
B4: target 1 insU 3' of 9,insG 3' of 3 (mixed)
RNA 1: B1 RNA 1
RNA 2: B1 RNA 2 with C45U, G47C, C48G, A49C, C51G, U52C
B5: target 1 G12U,A16G (mixed)
RNA 1: B1 RNA 1
RNA 2: GGGAAUGGAUCCACAUCUACGAAUUCGUACCAUAGGGAGUUUAUCCGCUCACCGAGAUCGGAAGAGCACACGU
B6: target 1 C7U,A14G (mixed)
RNA 1: B1 RNA 1
RNA 2: B5 RNA 2 with G36A, A38G, U40G, C45U
B7: target 1 insU 3' of 20,insG 3' of 19 (mixed)
RNA 1: B1 RNA 1
RNA 2: B2 RNA 2 with U31C, C32A, A33U, A35G, G36A
B8: target 1 insU 3' of 12,insC 3' of 11 (mixed)
RNA 1: B1 RNA 1
RNA 2: B1 RNA 2 with A43C, C45A, C46U, G47C, A49G, U50C, C51U, U52C
B9: target 1 insG 3' of 8,insG 3' of 6 (mixed)
RNA 1: B1 RNA 1
RNA 2: B1 RNA 2 with C45G, G47C, C48G, A49G, U50C, C51U, U52C
B10: target 1 C6G,G12U (mixed)
RNA 1: B1 RNA 1
RNA 2: B5 RNA 2 with G36A, C46G
B11: target 1 C4A,C6G (mixed)
RNA 1: B1 RNA 1
RNA 2: B5 RNA 2 with G36A, U40G, C46G, C48A
B12: target 1 A1G,C7U (mixed)
RNA 1: B1 RNA 1
RNA 2: B5 RNA 2 with G36A, U40G, C45U, A51G
B13: target 1 insG 3' of 3,insU 3' of 1 (mixed)
RNA 1: B1 RNA 1
RNA 2: B1 RNA 2 with A49U, U50G, U52A, A53U
B14: target 1 insA 3' of 10,insG 3' of 10 (mixed)
RNA 1: B1 RNA 1
RNA 2: B1 RNA 2 with U44G, C45A, C46U, G47C, A49G, U50C, C51U, U52C
B15: target 1 del3,del9 (mixed)
RNA 1: B1 RNA 1
RNA 2: GGGAAUGGAUCCACAUCUACGAAUUCGUACCAUAGAGAGGUUUCCGCCACCGAGAUCGGAAGAGCACACGU
B16: target 1 G15A,C22U (mixed)
RNA 1: B1 RNA 1
RNA 2: B5 RNA 2 with C30U, G36A, G37A, U40G
B17: target 1 insA 3' of 13,insG 3' of 6 (mixed)
RNA 1: B1 RNA 1
RNA 2: GGGAAUGGAUCCACAUCUACGAAUUCGUACCAUAGAGAGAGUUAUCCGGCUCACCGAGAUCGGAAGAGCACACGU
B18: target 1 insU 3' of 13,insU 3' of 12 (mixed)
RNA 1: B1 RNA 1
RNA 2: B17 RNA 2 with A40U, A44U, U45A, C46U, G48C
B19: target 1 C6U,A9U (mixed)
RNA 1: B1 RNA 1
RNA 2: B5 RNA 2 with G36A, U40G, A43U, C46U
B20: target 1 insA 3' of 12,insC 3' of 5 (mixed)
RNA 1: B1 RNA 1
RNA 2: B17 RNA 2 with A40G, G41A, G49C
B21: target 1 insG 3' of 2,insG 3' of 1 (mixed)
RNA 1: B1 RNA 1
RNA 2: B1 RNA 2 with A49U, U50C, C51G, U52A, A53G
B22: target 1 G5C,U10A (mixed)
RNA 1: B1 RNA 1
RNA 2: B5 RNA 2 with G36A, U40G, U42A, G47C
B23: target 1 G5C,G17C (mixed)
RNA 1: B1 RNA 1
RNA 2: B5 RNA 2 with G35C, G36A, U40G, G47C
B24: target 1 insU 3' of 20,insC 3' of 14 (mixed)
RNA 1: B1 RNA 1
RNA 2: B2 RNA 2 with U31C, C32A, A33U, G37A, A38G, G39A, A40C
B25: target 1 insA 3' of 15,insU 3' of 9 (mixed)
RNA 1: B1 RNA 1
RNA 2: B17 RNA 2 with G39A, A40G, C46U, G48C
B26: target 1 G5C,A9C (mixed)
RNA 1: B1 RNA 1
RNA 2: B5 RNA 2 with G36A, U40G, A43C, G47C
B27: target 1 del7,del8 (mixed)
RNA 1: B1 RNA 1
RNA 2: B15 RNA 2 with U43A, C45G, G46C, C47U
B28: target 1 insG 3' of 20,insU 3' of 20 (mixed)
RNA 1: B1 RNA 1
RNA 2: B2 RNA 2 with U31C, C32A, A33G, A35U, G36A
B29: target 1 insG 3' of 4 (mixed)
RNA 1: B1 RNA 1
RNA 2: GGGAAUGGAUCCACAUCUACGAAUUCGUACCAUAGAGAGGUUAUCCGCGUCACCGAGAUCGGAAGAGCACACGU
B30: target 1 U10A,A18C (mixed)
RNA 1: B1 RNA 1
RNA 2: B5 RNA 2 with A34C, G36A, U40G, U42A
B31: target 1 insC 3' of 20,insA 3' of 3 (mixed)
RNA 1: B1 RNA 1
RNA 2: GGGAAUGGAUCCACAUCUACGAAUUCGUACCACUAGAGAGGUUAUCCGCUACACCGAGAUCGGAAGAGCACACGU
B32: target 1 insU 3' of 18,insA 3' of 8 (mixed)
RNA 1: B1 RNA 1
RNA 2: B31 RNA 2 with C33U, U34A, A35U, C46A, G48C, C49G, U50C, A51U
B33: target 1 complement block 2-13 (mixed)
RNA 1: B1 RNA 1
RNA 2: GGGAAUGGAUCCACAUCUACGAAUUCGUACCAUAGAGACCAAUAGGCGAGACCGAGAUCGGAAGAGCACACGU

Target: T1, EsCas13d, nuclease-dead
Experiment: crRNA (strand 1, pre-loaded); Mg2+; 40 mM Tris-HCl pH 7.5, 150 mM NaCl, 6 mM MgCl2, 1 mM DTT, 0.1% Tween-20, 0.2 mg/ml BSA; 25 C; 10 min per concentration, then washed
Settings: tags: His6-TwinStrep-SUMO cleaved; N-terminal SNAP kept (SNAP-Surface 488); label: 3' end held by stalled T7 RNA polymerase

Binder	Kd [nM]
B1	9.4 ± 0.9
B2	84 ± 17
B3	7.6 ± 0.5
B4	12.7 ± 0.6
B5	43 ± 5
B6	16.5 ± 1.6
B7	30.4 ± 1.8
B8	25 ± 4
B9	7.05 ± 0.26
B10	13.7 ± 1.2
B11	5.4 ± 0.4
B12	9.2 ± 0.7
B13	9.04 ± 0.35
B14	12.3 ± 0.6
B15	40 ± 5
B16	17.7 ± 2.4
B17	3.93 ± 0.27

Binder	Kd [nM]
B18	11.8 ± 1.3
B19	8.2 ± 0.4
B20	23.6 ± 2.1
B21	7 ± 0.6
B22	11.8 ± 0.6
B23	48 ± 6
B24	51 ± 16
B25	24.4 ± 3.1
B26	16.7 ± 0.8
B27	10.6 ± 0.7
B28	28.4 ± 1.6
B29	6.65 ± 0.25
B30	100 ± 17
B31	8.76 ± 0.32
B32	55 ± 4
B33	74 ± 11
